Test results taken from patent US20160045487A1, “COMPOSITIONS AND METHODS FOR TREATING NEUROPATHY” (CHILDEREN'S MEDICAL CENTER CORPORATION, priority 2013, published 2016).

Assays:
[1] = test system: GFRα/RET receptor signaling; experiment: Tyrosine hydroxylase promoter luciferase reporter assay in SH-SY5Y-THpGL3 cells; format: cell-based, human; settings: for maximal effect, luciferase activity: 18 nM ligand alone; for minimal ligand dose necessary to induce luciferase activity above control / luciferase activity versus ligand concentration: ligand alone; for minimal ligand dose necessary to induce luciferase activity above control: 10 minutes, washout, overnight; for luciferase activity versus ligand concentration: luciferase measured 18 hours later
From the text: (§1) One goal of these studies was to determine if XIB4035 could be used for treating SFN in humans. Using the Neuro2A (N2A) murine neuroblastoma cell line, Tokugawa et al. (supra) reported XIB4035 as a competitive agonist for the GDNF receptor GFRα1 that activates the RET receptor. Since populations of DRG sensory neurons express different GFRα receptors, thus making them preferentially responsive to the particular ligands, it was important to determine if XIB4035 was specific to GFRα1 or could act on other family members. Since PSPN has no effect on peripheral sensory neurons, the GFRα1, GFRα2, and GFRα3 receptors were the focus of these studies. The SH-SY5Y, a human neuroblastoma cell line expressing mRNA for GFRα1, GFRα2, and GFRα3, was used to perform two cell-based assays; immunoblots measuring RET phosphorylation and a luciferase reporter assay using the tyrosine hydroxylase (TH) promoter. For the latter two paradigms were used, either overnight treatment immediately followed by luciferase activity measurements or 10 minute treatments followed by washout and overnight incubation prior to measurements. GDNF and ARTN induced robust TH-luciferase activity in a dose dependent manner (FIG. 3E). Because the responses to GDNF and ARTN were more robust, these two factors were chosen for further analysis.
The tyrosine hydroxylase promoter was cloned into the pGL3 basic vector (Promega, Madison, Wis., USA) at the Mlu I and Hind III sites, as previously described (Zwick, supra) (TH-pGL3). Briefly, a 2 Kb promoter region upstream from the transcription initiation site of the rat TH gene was cloned from genomic DNA using the primer sequences, […] and […]. SH-SY5Y cells were co-transfected with the TH-pGL3 and the pBabe-puromycin expression vectors at a molar ratio of 10:1. Cells were selected for stable puromycin resistance at a final concentration of 0.5 μg/ml of puromycin-dihydrochloride. Stable colonies were selected and tested for TH-directed luciferase response to GDNF family ligand stimulation. One stable clone, SH-SY5Y-THpGL3, with good signal-to-noise ratio was selected for use in the experiments.
SH-SY5Y-THpGL3 cells were maintained in DMEM/F12, 5% FBS, and 1% penicillin/streptomycin and plated on collagen coated plates (4 μg/ml). Neuro-2A cells were grown in MEM, 5% FBS, and 1% penicillin/streptomycin. BE(2)-C cells were grown in DMEM/F12 media containing 5% FBS and 1% penicillin/streptomycin. PC-12 cells were maintained in media containing RPMI-1640, 10% horse serum, 5% FBS, and 1% penicillin/streptomycin on collagen coated plates. For luciferase assays, cells were treated for either 10 minutes with washout or overnight with various molecules and assayed for firefly luciferase 16-24 hours post-treatment using the luciferase assay system (Promega, Madison, Wis., USA).

[2] = target: T1, RET (Mus musculus, UniProt P35546); experiment: RET phosphorylation in control transfected (mGFP) N2A cells; format: cell-based, murine; settings: 2 nM GDNF or 1 nM ARTN
T1 construct: endogenous in cells
Description: (§2) Since the original report argued that XIB4035 displaces GDNF binding to GFRα1 expressing cells (FIG. 2 in Tokugawa et al., Neurochem Int 42, 81-86 (2003).), potentially ARTN, on TH-luciferase activity and Ret phosphorylation. […] In this experiment, cells were treated with GDNF or ARTN with or without XIB4035 for 10 minutes and cell lysates were either collected immediately or treatment was washed out and replaced with growth media for 30, 60, or 120 minutes. […] Therefore, we tested cells expressing only one GFRα using either N2A cells (which express RET) transfected with GFRα1 or GFRα3 expression constructs, or B(E)2-C cells, which express only GFRα2 together with RET. […] The GFRα1 or GFRα3 transfected N2A cells were then treated with XIB4035 alone, the appropriate ligand for the expressed receptor alone, or XIB4035 and ligand in combination for 10 minutes, and collected lysates immediately after treatment or 60 minutes after washout. […] Similar results were obtained with GFRα2 and NRTN using B(E)2-C cells (FIG. 8). Thus, XIB4035 is a positive modulator of signaling by GDNF family ligands and their receptors, not an agonist for GFRα1 as previously reported. […]

[3] = target: T2, GFRα3/RET (UniProt O60609+P35546); experiment: RET phosphorylation in N2A cells transfected with GFRα3; format: cell-based, human GFRα3 in murine N2A cells; settings: 1 nM ARTN
T2 construct: N2A cells (which express RET) transfected with GFRα1 or GFRα3 expression constructs; expressed in transfected cells; host or cells: Neuro2A (N2A) cells; GFRα3 plasmid was a gift from Dr. Milbrandt; RET is endogenous
Description: (§3) Since the original report argued that XIB4035 displaces GDNF binding to GFRα1 expressing cells (FIG. 2 in Tokugawa et al., Neurochem Int 42, 81-86 (2003).), potentially ARTN, on TH-luciferase activity and Ret phosphorylation. […] In this experiment, cells were treated with GDNF or ARTN with or without XIB4035 for 10 minutes and cell lysates were either collected immediately or treatment was washed out and replaced with growth media for 30, 60, or 120 minutes. […] Therefore, we tested cells expressing only one GFRα using either N2A cells (which express RET) transfected with GFRα1 or GFRα3 expression constructs, or B(E)2-C cells, which express only GFRα2 together with RET. […] The GFRα1 or GFRα3 transfected N2A cells were then treated with XIB4035 alone, the appropriate ligand for the expressed receptor alone, or XIB4035 and ligand in combination for 10 minutes, and collected lysates immediately after treatment or 60 minutes after washout. […] Similar results were obtained with GFRα2 and NRTN using B(E)2-C cells (FIG. 8). Thus, XIB4035 is a positive modulator of signaling by GDNF family ligands and their receptors, not an agonist for GFRα1 as previously reported.
(§4) For phosphorylated Ret immunoblot experiments, cells were treated with various combinations of molecules for 10 minutes and either collected immediately or had treatment washed out and returned to control treatment media for the times indicated prior to cell collection. Lysates were collected in buffer containing: 50 mM Tris-HCL, 1% TX-100, 0.25% Deoxycholic acid, 150 mM sodium chloride, 1 mM EDTA, 0.1 mM sodium fluoride, 0.1 mM sodium pyrophosphate, 0.02 mM sodium orthovanadate, and protease inhibitors Immunoblots were blocked in 5% bovine serum albumin in tris-buffered saline+0.2% Tween 20+0.1 mM sodium fluoride, 0.1 mM sodium pyrophosphate, and 0.02 mM sodium orthovanadate and probed in blocking solution using anti-phospotyrosine (4G10) mouse monoclonal antibody (1:2000; EMD Milipore Corp., Billerica, Mass.). […]

[4] = target: T3, RET (Homo sapiens, UniProt P07949+P56159); experiment: RET phosphorylation phospho-tyrosine Western blot in SH-SY5Y cells; format: cell-based; settings: 2 nM GDNF, two or 10 minutes
T3 construct: endogenous in cells; host or cells: SH-SY5Y (SH-SY5Y-THpGL3) human neuroblastoma cells
From the text: as §1
Since the original report argued that XIB4035 displaces GDNF binding to GFRα1 expressing cells (FIG. 2 in Tokugawa et al., Neurochem Int 42, 81-86 (2003).), potentially ARTN, on TH-luciferase activity and Ret phosphorylation. […] In this experiment, cells were treated with GDNF or ARTN with or without XIB4035 for 10 minutes and cell lysates were either collected immediately or treatment was washed out and replaced with growth media for 30, 60, or 120 minutes. […] Therefore, we tested cells expressing only one GFRα using either N2A cells (which express RET) transfected with GFRα1 or GFRα3 expression constructs, or B(E)2-C cells, which express only GFRα2 together with RET. […]

[5] = target: T4, GFRα1/RET (UniProt P35546+Q62997); experiment: RET phosphorylation in N2A cells transfected with GFRα1; format: cell-based, rat GFRα1 in murine N2A cells; settings: 2 nM GDNF
T4 construct: N2A cells (which express RET) transfected with GFRα1 or GFRα3 expression constructs; expressed in transfected cells; host or cells: Neuro2A (N2A) cells; GFRα1 plasmid was a gift from Dr. Milbrandt; RET is endogenous
Description: as §3, §4

[6] = target: T5, GFRα2/RET (Homo sapiens, UniProt O00451+P07949); experiment: NRTN/GFRα2-induced RET phosphorylation in B(E)2-C cells; format: cell-based; settings: 2 nM NRTN alone, 10 minutes, then 60 minutes growth medium
T5 construct: B(E)2-C cells, which express only GFRα2 together with RET; endogenous in cells; host or cells: B(E)2-C / BE(2)-C cells
Description: B(E)2-C cells, which express GFRα2, were treated under different conditions (no treatment, 2 nM NRTN, or 2 nM NRTN with 20 μM XIB4035) for 10 minutes. Cells were either lysed immediately or after incubation in growth medium for an additional 60 minutes.
as §2, with “8).” for “8). Thus, XIB4035 is a positive modulator of signaling by GDNF family ligands and their receptors, not an agonist for GFRα1 as previously reported.”

T1 sequence (P35546 29-1115): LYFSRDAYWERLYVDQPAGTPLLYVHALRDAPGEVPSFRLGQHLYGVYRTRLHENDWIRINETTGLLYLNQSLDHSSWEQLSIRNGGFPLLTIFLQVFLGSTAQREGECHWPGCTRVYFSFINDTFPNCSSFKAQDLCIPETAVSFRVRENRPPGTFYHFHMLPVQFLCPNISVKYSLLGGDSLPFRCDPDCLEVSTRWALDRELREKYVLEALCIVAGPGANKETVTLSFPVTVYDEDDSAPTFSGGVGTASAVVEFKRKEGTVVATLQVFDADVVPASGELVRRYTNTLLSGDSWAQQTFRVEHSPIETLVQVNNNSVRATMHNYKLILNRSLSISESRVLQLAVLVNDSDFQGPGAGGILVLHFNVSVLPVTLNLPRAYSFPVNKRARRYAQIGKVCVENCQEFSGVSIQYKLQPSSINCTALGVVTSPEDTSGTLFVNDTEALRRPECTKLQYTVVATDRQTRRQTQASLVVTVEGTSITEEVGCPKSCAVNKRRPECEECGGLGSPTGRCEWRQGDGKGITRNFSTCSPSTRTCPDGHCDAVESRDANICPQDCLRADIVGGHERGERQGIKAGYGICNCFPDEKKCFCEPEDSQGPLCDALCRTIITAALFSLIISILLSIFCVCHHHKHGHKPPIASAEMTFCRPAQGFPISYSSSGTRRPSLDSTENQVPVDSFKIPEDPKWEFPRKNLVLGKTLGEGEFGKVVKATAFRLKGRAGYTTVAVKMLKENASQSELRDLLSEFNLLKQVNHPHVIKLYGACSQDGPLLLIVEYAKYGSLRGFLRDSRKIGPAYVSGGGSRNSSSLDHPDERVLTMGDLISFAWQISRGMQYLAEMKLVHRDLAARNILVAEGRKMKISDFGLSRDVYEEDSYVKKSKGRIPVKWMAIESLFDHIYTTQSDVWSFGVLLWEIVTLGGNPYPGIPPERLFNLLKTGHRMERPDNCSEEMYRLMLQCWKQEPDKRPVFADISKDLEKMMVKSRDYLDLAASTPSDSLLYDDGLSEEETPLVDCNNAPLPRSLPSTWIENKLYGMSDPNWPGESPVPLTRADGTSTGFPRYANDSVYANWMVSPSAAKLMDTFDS
T3 sequence (P07949 29-1114): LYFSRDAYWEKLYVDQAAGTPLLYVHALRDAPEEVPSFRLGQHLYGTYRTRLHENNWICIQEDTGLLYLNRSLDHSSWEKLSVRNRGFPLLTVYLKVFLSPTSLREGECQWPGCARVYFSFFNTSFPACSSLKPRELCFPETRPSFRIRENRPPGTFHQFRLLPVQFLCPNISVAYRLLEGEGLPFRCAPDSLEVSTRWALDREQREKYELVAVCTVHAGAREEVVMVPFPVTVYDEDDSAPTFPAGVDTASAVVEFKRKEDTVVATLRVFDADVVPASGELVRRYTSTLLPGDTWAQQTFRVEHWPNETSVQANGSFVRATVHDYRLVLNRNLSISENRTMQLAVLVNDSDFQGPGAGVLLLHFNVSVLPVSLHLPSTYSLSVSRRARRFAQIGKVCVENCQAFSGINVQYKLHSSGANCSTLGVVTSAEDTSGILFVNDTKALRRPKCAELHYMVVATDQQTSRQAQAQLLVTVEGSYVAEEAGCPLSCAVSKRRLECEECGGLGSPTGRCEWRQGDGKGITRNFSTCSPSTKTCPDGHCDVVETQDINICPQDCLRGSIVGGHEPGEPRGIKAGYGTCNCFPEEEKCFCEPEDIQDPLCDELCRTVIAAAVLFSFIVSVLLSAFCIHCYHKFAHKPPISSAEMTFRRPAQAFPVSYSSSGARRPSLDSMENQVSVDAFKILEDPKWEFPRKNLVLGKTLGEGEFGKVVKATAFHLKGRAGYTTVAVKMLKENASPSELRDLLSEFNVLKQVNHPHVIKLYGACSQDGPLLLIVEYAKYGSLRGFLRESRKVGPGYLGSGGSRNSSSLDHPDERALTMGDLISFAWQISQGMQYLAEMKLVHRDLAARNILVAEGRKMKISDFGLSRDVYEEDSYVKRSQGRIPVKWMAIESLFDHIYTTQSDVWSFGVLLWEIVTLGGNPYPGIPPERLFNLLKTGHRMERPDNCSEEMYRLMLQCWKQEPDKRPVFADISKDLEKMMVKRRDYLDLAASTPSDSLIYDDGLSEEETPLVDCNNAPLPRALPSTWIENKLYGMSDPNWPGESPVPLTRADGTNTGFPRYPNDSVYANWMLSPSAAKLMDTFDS
T3 sequence (P56159 25-429 limits assumed): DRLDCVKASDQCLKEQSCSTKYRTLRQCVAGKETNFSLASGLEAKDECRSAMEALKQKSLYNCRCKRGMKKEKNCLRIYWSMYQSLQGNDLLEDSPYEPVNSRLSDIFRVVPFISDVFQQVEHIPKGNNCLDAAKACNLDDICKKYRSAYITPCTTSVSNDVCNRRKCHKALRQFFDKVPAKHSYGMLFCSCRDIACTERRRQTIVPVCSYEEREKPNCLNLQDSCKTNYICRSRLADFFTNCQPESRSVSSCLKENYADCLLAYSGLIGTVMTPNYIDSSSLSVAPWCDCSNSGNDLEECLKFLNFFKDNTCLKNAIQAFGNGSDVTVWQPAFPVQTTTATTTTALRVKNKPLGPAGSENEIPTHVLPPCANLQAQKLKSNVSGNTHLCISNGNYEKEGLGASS
T4 sequence (Q62997 25-430 limits assumed): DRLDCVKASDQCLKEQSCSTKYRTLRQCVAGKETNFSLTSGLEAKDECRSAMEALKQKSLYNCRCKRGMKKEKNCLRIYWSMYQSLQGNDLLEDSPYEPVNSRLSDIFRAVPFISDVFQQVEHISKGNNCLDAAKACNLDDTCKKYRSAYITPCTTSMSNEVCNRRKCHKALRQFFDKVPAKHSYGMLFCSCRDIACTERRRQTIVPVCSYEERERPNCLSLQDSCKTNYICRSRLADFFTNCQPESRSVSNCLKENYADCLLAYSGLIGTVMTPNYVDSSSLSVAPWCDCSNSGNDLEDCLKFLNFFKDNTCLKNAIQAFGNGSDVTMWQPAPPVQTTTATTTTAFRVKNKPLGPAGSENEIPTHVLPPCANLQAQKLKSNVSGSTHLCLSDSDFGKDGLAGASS
T4 sequence (P35546 29-1115): as the sequence (P35546 29-1115) above
T2 sequence (O60609 32-374 limits assumed): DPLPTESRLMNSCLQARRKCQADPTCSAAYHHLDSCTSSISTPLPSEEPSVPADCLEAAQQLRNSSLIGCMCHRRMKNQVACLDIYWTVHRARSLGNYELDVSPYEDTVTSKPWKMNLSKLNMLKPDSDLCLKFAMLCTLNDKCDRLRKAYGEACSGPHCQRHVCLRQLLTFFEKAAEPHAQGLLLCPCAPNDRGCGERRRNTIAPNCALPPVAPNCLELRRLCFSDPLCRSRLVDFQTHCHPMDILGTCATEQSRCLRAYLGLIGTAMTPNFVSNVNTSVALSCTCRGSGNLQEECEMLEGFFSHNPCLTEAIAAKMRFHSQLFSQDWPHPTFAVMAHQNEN
T2 sequence (P35546 29-1115): as the sequence (P35546 29-1115) above
T5 sequence (O00451 22-444 limits assumed): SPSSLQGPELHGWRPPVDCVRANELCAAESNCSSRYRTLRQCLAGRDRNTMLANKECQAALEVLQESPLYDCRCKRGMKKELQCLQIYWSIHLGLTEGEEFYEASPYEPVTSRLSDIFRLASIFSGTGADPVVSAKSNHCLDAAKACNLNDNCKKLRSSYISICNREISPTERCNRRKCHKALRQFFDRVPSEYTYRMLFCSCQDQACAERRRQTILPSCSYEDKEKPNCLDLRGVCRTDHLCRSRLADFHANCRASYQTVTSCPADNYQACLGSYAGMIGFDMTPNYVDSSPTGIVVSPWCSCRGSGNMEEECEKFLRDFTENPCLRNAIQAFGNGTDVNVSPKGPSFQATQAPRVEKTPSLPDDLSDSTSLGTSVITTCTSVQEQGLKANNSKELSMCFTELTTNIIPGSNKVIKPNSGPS
T5 sequence (P07949 29-1114): as the sequence (P07949 29-1114) above

RET phosphorylation [2] | RET phosphorylation [3] | RET phosphorylation [4] | RET phosphorylation [5] | RET phosphorylation at 60 min [6] | Molecule | maximal effect, luciferase activity [1] [fold over control] | minimal ligand dose necessary to induce luciferase activity above control [1] [pM] | luciferase activity versus ligand concentration [1] | TH promoter activity (luciferase) ([1]; 2 nM GDNF, 10 minutes then overnight in regular medium, or overnight)
No RET phosphorylation was detected | induced RET phosphorylation | – | – | – | ARTN: artemin, GDNF family ligand of GFRα3; purchased from Peprotech | 2.78±0.44 | 75 | dose-dependent increase | –
No RET phosphorylation was detected | – | induced | induced RET phosphorylation | – | GDNF: Glial cell line-derived neurotrophic factor, GFRα1 ligand; purchased from Peprotech (protein, UniProt P39905 78-211, looked up) Glial cell line-derived …: SPDKQMAVLPRRERNRQAAAANPENSRGKGRRGQRGKNRGCVLTAIHLNVTDLGLGYETKEELIFRYCSGSCDAAETTYDKILKNLSRNRRLVSDKVGQACCRPIAFDDDLSFLDDNLVYHILRKHSAKRCGCI | 2.76±0.32 | 75 | dose-dependent increase | increases TH promoter activity
– | – | – | – | not detectable | NRTN: neuturin, GDNF family ligand of GFRα2; purchased from Peprotech (protein, UniProt Q99748 96-197, looked up) Neurturin: ARLGARPCGLRELEVRVSELGLGYASDETVLFRYCAGACEAAARVYDLGLRRLRQRRRLRRERVRAQPCCRPTAYEDEVSFLDAHSRYHTVHELSARECACV | – | – | dose-dependent increase | –
